doi:10.1101/2024.10.28.620641 (bioRxiv, 2024)

Target: the molecule itself
Assay: cryo-EM structure

B1: Caulobacter crescentus Tad pilus ATPase CpaF (enzyme, Caulobacter crescentus NA1000, UniProt Q9L714 1-501, looked up)
chain: MFGKRDSSASGDPKAPPPAPAGGATIATRPQRVEPVAAPEPKAPAPKVSGPAPKPTVGLEQLRAAQGQPQTANIVREQSDYYHATKTTIFNALLNTIDLSQLAQLDLKQAGEEIRDIVAELVAIKNVSMSVAEQEHLVQDIINDVLGYGPLEPLLARDDIADIMVNGAHRVFIEVGGKVQLTNVRFRDNLQLMNICQRIVSQVGRRVDESSPICDARLPDGSRVNVIAPPLALDGPTLTIRKFKKDKLTMKNLVEFASISPEGARVLGVIGACRCNLVISGGTGSGKTTLLNTMTAFIDPTERVVTCEDAAELQLQQPHVVRLETRPPNLEGSGAVTMRDLVKNCLRMRPERIIVGEVRGPEAFDLLQAMNTGHDGSMGTLHANSPREAISRIESMITMGGYGLPSKTIKEMIVGSVDVIIQAARLRDGSRRITHITEVVGLEGDVIVTQDLFVYEITGEDEHGKVVGKHRSTGIARPRFWDRARYYGLERELAEALDAAE
stoichiometry N: 6
